Experimental data reported in US20260193348A1 (ANTENGENE BIOLOGICS, published 2026).
Substitutions are numbered along the chain they refer to. Numbers in names are those of the source. Each block holds one binder with its values, some of them ahead of it.

Assays:
[1] = target: T1, GPRC5D on multiple myeloma cells (human, UniProt Q9NZD1 1-345); experiment: FACS on MM.1S cells
T1 construct: whole, on cells; Endogenous GPRC5D on multiple myeloma cell lines; also called G-protein coupled receptor family C group 5 member D; MM.1S, MOLP-8, L363, RPMI8226 cells
T1 sequence (Q9NZD1 whole entry): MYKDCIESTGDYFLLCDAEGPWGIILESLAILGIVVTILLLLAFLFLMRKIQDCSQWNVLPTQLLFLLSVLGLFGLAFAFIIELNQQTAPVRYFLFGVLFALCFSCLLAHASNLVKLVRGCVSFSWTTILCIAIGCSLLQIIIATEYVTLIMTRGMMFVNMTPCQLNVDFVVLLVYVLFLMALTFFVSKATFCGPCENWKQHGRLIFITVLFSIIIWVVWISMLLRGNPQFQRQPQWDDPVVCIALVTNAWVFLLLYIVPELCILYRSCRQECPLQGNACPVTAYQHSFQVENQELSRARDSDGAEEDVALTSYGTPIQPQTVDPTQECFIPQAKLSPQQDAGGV

[2] = target: T2, CD3 on T cells / Jurkat cells (human, UniProt P07766 23-207; P04234 22-171; P09693 23-182); experiment: FACS on Jurkat cells
T2 construct: whole, on cells; Native CD3 complex on CD3+ T cells isolated from normal donors or on Jurkat cells; also called human CD3; CD3+ T cells
T2 sequence (P07766 23-207, chain 1 of 3): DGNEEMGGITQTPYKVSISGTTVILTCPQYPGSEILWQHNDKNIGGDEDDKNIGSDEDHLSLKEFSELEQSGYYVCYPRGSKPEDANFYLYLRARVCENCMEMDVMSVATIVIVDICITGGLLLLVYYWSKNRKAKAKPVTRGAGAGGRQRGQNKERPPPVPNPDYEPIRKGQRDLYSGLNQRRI
T2 sequence (P04234 22-171, chain 2 of 3): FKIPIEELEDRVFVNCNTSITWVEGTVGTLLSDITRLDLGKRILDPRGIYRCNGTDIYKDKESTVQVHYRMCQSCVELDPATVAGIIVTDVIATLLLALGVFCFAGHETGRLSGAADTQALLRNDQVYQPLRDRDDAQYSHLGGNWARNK
T2 sequence (P09693 23-182, chain 3 of 3): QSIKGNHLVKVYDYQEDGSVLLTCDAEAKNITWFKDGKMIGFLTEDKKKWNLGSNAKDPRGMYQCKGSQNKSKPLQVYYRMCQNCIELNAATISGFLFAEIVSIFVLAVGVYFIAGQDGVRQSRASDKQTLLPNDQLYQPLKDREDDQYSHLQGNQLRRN

B1: Bis-108+147-R35K.L (bispecific antibody, V domains shown)
VH 1: EVQLVQSGAEVKKPGASVKVSCKASGYTFTSYVIHWVRQAPGQGLEWMGYFNPYNDGTKYNEEFKGRVTLTSDKSTSTAYMELRSLRSDDTAVYYCARGGVRRYFDVWGQGTTVTVSS
VL 1: DIQMTQSPSSLSASVGDRVTITCRASQDIGSNLNWLQQKPGKAIKRLIYATFGLDSGVPSRFSGSRSGTDFTLTISSLQPEDFATYYCQQYASFPYTFGGGTKVEIK
VH 2: EVQLVQSGAEVKKPGSSVKVSCKASGYTFTSYWMHWVRQAPGQCLEWMGNINPSSGATNYNEKFKSRVTLTVDKSTSTAYMELSSLRSEDTAVYYCARDRSSQYYFDYWGQGTTVTVSS
VL 2: DIVMTQSPDSLAVSLGERATINCKSSQSLLNSRSKKNYLAWYQQKPGQPPKLLIYWASTRESGVPDRFSGSGSGTDFTLTISSLQAEDVAVYYCTQSYTLRTFGCGTKVEIK
notes: Fab-scFv-Fab (2+1): first VH/VL = anti-GPRC5D Fabs, second VH/VL = anti-CD3 scFv
binding result [1]: binds
binding result [2]: binds

B2: Bis-108+147-S102Q.H (bispecific antibody, V domains shown)
VH 1: B1 VH 1
VL 1: B1 VL 1
VH 2: B1 VH 2 with S102Q
VL 2: B1 VL 2 with K35R
notes: as for B1
binding result [1]: binds
binding result [2]: binds

B3: Bis-108+147-S31R.H (bispecific antibody, V domains shown)
VH 1: B1 VH 1
VL 1: B1 VL 1
VH 2: B1 VH 2 with S31R
VL 2: B1 VL 2 with K35R
notes: as for B1
binding result [1]: binds
binding result [2]: binds

B4: Bis-108+147-R100Q.H (bispecific antibody, V domains shown)
VH 1: B1 VH 1
VL 1: B1 VL 1
VH 2: B1 VH 2 with R100Q
VL 2: B1 VL 2 with K35R
notes: as for B1
binding result [1]: binds
binding result [2]: binds

Second part, the binder after the results:

binding result [1]: binds
binding result [2]: binds
B5: Bis-108+147-R35S.L (bispecific antibody, V domains shown)
VH 1: B1 VH 1
VL 1: B1 VL 1
VH 2: B1 VH 2
VL 2: B1 VL 2 with K35S
notes: as for B1

binding result [1]: binds
binding result [2]: binds
B6: Bis-108+147-S32R.L (bispecific antibody, V domains shown)
VH 1: B1 VH 1
VL 1: B1 VL 1
VH 2: B1 VH 2
VL 2: B1 VL 2 with S32R, K35R
notes: as for B1

binding result [1]: binds
binding result [2]: binds
B7: Bis-108+147-S54R.H (bispecific antibody, V domains shown)
VH 1: B1 VH 1
VL 1: B1 VL 1
VH 2: B1 VH 2 with S54R
VL 2: B1 VL 2 with K35R
notes: as for B1
